Source: the nanobody polyreactivity screen of Harvey et al. (2022)

Assay: yeast display, Sf9 membrane polyspecificity reagent, FACS + sequencing; frameworks hold sequencing errors
In short: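 A synthetic nanobody library was expressed on Saccharomyces cerevisiae BJ5465 by galactose induction for 36–48 hours. The library was stained for 1 hour at 4 °C with 10% biotinylated, detergent-solubilized Sf9 membrane reagent and enriched with streptavidin microbeads before FACS. Low and high (top ~1%) gates were set on anti-HA fluorescence for expression and streptavidin fluorescence for reagent binding, and each polyreactivity label reflects the gate of origin.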

| Sequence | polyreactivity (PSR sort gate) |
| --- | --- |
| QVQLVDSGGGLVQAGGSLRLRCAASGLTFYTYAMGWYRQAPGKERELVAANRWRGGRTYYADSVKGRFTISRDNAKNTVYLQMNSLKPDDTAVYYCAADYSTLYKYDYWGQGTQVTVSS | low polyreactivity |
| QVQLVDSGGGLVQAGGSLRLSCAASGFIFDLYAMGWYRQAPGKERELVAAITTSGGTTYYADSVKGRFTISRDNAKNTVYLQMNSLIPEDTAVYFCAARRYSWYYYWGQGTQVTVSS | high polyreactivity |
| QVQLVDSGGGLVQAGGSLRLSCAASGFIFGINAMGWYRQAPGKERELVSAISTGDRTNYADSVKRRFTISRDNAKNTVYLQMYSLKPEDTAVYYFAKDWRRNRPYEWTYDYWGQGTQVTVSS | low polyreactivity |
| QVQLVDSGGGLVQAGGSLRLSCAASGFIFQYYAMGWYRQAPGKEMGLVAAISFSGGSTYYADSVKGRFTISRDNAKNTVYLQMNSLKPEDTAVYYCAAEVYSVGDYSGHDYYWGQGTQVTVSS | low polyreactivity |
| QVQLVDSGGGLVQAGGSLRLSCAASGFTFFRYAMGWYRQAPGKERELVAAITSGGGRTYYADSVKGRFTISRDNAKNTVYLQMNSLNPEDTAVYYCAARVYFSFITPIKYNYWGQGTQVTVSS | high polyreactivity |
| QVQLVDSGGGLVQAGGSLRLSCAASGFTFNGYAMGWSRPAPGKEREFVAAISSSGGSTYYADSVKGRFTISRDNAKNTVYLQMNSLKPDDTAVYYCNAVGWRKKYDYWGQGTQVTVSS | high polyreactivity |
| QVQLVDSGGGLVQAGGSLRLSCAASGFTIPTYAMGWYRQAPGKERELVAAISGDGDSTYYADSVKGRFTISRDNAKNTVYLQMNSLKPEDTAVYYCAAEPNVYFSVFVLFPSDYWGQGTQVTVSS | low polyreactivity |
| QVQLVDSGGGLVQAGGSLRLSCAASGITFYVNAMGWYRQAPRKERELVASISTGGSTNYADSVKGRFTISRDNAKNTVYLQMNSLKPEDTAVYYCAARVDYHPSLRDYWGQGTQVTVSS | low polyreactivity |
| QVQLVDSGGGLVQAGGSLRLSCAASGITSHYYAMGWYRQAPGKERELVAAITSSGSTYYADSVKGRFTISRDNAKNTVYLQMNSLKPEVTAVYYCATTVWYKKAPYPDGDYWGQGTQVTVSS | low polyreactivity |
| QVQLVDSGGGLVQAGGSLRLSCAASGLIFEVYAMGWYRQAQGKERELVAAISWRGGSTDYADSVKGRFTISRDNAKNTVYLQMNSLKPEDTAFYYCAKGYRGRTTAGNLWEFDYWGQGTQVTVSS | high polyreactivity |
| QVQLVDSGGGLVQAGGSLRLSCAASGLIFKLNAMGWYRQAPGKERELVAAIRASTGSTYYADSVKGRFTISRDNAKNTVYLQMNSLKPEDTADYYCAVRLRWYFFLMDYWGQGTQVTVSS | high polyreactivity |
| QVQLVDSGGGLVQAGGSLRLSCAASGLIFPYNAMGWYRQAPGKERELVAAIDSGVTTYYADSVKGRFTISRDNAKNTVYLQMNSLKPEDTAVYYCAAVGLPGPEGDSWGQGTQVTVSS | low polyreactivity |
| QVQLVDSGGGLVQAGGSLRLSCAASGLTFYHYTMGWYRQAPGKERELVPAITKNGGSTYYADSVKGRFTISRDNAKNTVYLQMNSLKPEDSAVYYCAAYEFGLLRYYSGRSYYYWGQGTQVTVSS | high polyreactivity |
| QVQLVDSGGGLVQAGGSLRLSCAASGNTFGINDMGWYRKAPGKERELVAAIRISGGSTYYADSVKGRFTISRDNAKNTVYLQMNSLKPEDTAVYYCAKYGPRASLYRTGRYYWGQGTQVTVSS | high polyreactivity |
| QVQLVDSGGGLVQAGGSLRLSCAASGNTFRYYVMGWYRQAPGKERELVAASTSSGGNTYYADSVKGRFTISRDNAKNTVYLQMNSLKPEDTAVYYCAASYDINYYFSDYNYWGQGTQVTVSS | high polyreactivity |
| QVQLVDSGGGLVQAGGSLRLSCAASGRIFGRYAMGWSRQAPGKESELVASITYRGGGTYYADSVKGRFTISRDNAKNTVYLQMNSLKPEDTAVYYCNAYFAGVLRRNYRGQGTQVTVSS | high polyreactivity |
| QVQLVDSGGGLVQAGGSLRLSCAASGRIFIGYAMGWNRQAPWRERELVAAITSGGGTYYADSVKARFTISRDNAKNTVYLQMNSLKPEDTAVYFCAGAQRYPIKYYFWGQGTQVTVSS | low polyreactivity |
| QVQLVDSGGGLVQAGGSLRLSCAASGRIFYAYAMGGYRQAPGKERELVARISASGGNTYYADSVKGRFTISRDNAKNSVYLQMNSLKPEDTAVYYCNKLFWYGRQYDYWGQGTQVTVSS | high polyreactivity |
| QVQLVDSGGGLVQAGGSLRLSCAASGRIFYSNAMGWYRQAPGKVRELVAAITTSGASTYYADSVKGRFTISRDNAKNTVYLQLISMKPEDTAVYYCATYAVVYPFAMDYWGQGTQVTVSS | low polyreactivity |
| QVQLVDSGGGLVQAGGSLRLSCAASGRIFYYYAMGWYRQAPGKERELVAAISWNGGTTYYAESVKGRFTISRDNAKNTVYLQINSLKPEDTAVYYCNAVLYRGPPGSRMDYWGQGTQVTVSS | high polyreactivity |
| QVQLVDSGGGLVQAGGSLRLSCAASGRISSQYAMGWYRQAPGKERELVAAISTSGDRTYYADSVKGRFTISRDNAKNTVYLQMNSLKPEDTAVYYCAKDGPYTYGRDISEYWGQGTQVTVSS | low polyreactivity |
| QVQLVDSGGGLVQAGGSLRLSCAASGRTCYTNAMGWYRQAPGKERELVAAINRSGGSTYYADSVKGRFTISRDNAKNTVYLQMNSLKPEDTAVYYCNKAFTHTKYLSPIAYEYGYWGQGTQVTVSS | low polyreactivity |

| Sequence | polyreactivity (PSR sort gate) |
| --- | --- |
| QVQLVDSGGGLVQAGGSLRLSCAASGRTFAFNYAMGWYRQAPGKERELVAAISSSGTRTRYADSVKGRFTISRDNAKNTVYLQMNSLKPEDTAVYYCSKRSLGIGRSNYWGQGTQVTVSS | high polyreactivity |
| QVQLVDSGGGLVQAGGSLRLSCAASGRTFGAYAMGWYRQAPGKERELVATITVSGGSTYYADSVKGRFTISRDNAKNTVYLQMNSLKPEDSAVYYCAAAYDWWQFYSWTIAYDYWGQGTQVTVSS | low polyreactivity |
| QVQLVDSGGGLVQAGGSLRLSCAASGRTFLFNSMGWYRQATGKQRELVAGITWSSGSTYYADSVKGRITISRDNAKNTVYLQMNSLKPEDTAVYYCAAYHFHDNDYWGQGTQVTVSS | low polyreactivity |
| QVQLVDSGGGLVQAGGSLRLSCAASGRTFPSYGMGWYRQAPGKERELVAPITGGGSTYYADSVKGRFTISRDNAKNTVYLQINSLKPEDTAVYYCAKRPYYNRHYHYRSKYDYWGLGTQVTVSS | high polyreactivity |
| QVQLVDSGGGLVQAGGSLRLSCAASGRTFRLNDMGWYRQAPGKDRELVAAITRSGGSTYYADSVKGRFTISRDNAKNTVYFQMNSLKPEDTAVYYCNAVRSRYYDDYDYWGQGTQVTVSS | high polyreactivity |
| QVQLVDSGGGLVQAGGSLRLSCAASGRTFRSYAMGWYRQAPGKERELVAAITWNGGGTYYADSVKGRFTMSRDNAKNTVYLQMNSLKPEETAVYYCAGRGRTDSYWRFYHWGQGTQVTVSS | high polyreactivity |
| QVQLVDSGGGLVQAGGSLRLSCAASGRTFRTNAMGWYRQAPGKERELVAAISSNGGTTYYADSVKGRFTISRDNAKNTVYLQMNSLKPEDTAVYYCNIESQYLWPEFDYWGQGTQVTVSS | low polyreactivity |
| QVQLVDSGGGLVQAGGSLRLSCAASGRTFTWYAMGWYRQAPGKERELVSAITNGGRTYADSVKGRFTISRDNAKNTVYLQMNSLKPEDTAVYYCAKVQYRGYLPHQRGRERDYDYWGQGTQVTVSS | low polyreactivity |
| QVQLVDSGGGLVQAGGSLRLSCAASGRTIATYTQGWYRHAPGKERELVAAISKSGGSTYYADSVKGRFTISRDNAKNTVYLQMNSLKTEDTAVYYCAKRRSGNVRKYDYWGQGTQVTVSS | high polyreactivity |
| QVQLVDSGGGLVQAGGSLRLSCAASGRTIYLYAMACYRQAPGKERELVAAISERGGRTYYADSVKGRFTISRDNAKNTVYLQMNSLKPEDTAVYYCAAVKGYNYGYWGQGTQVTVSS | high polyreactivity |
| QVQLVDSGGGLVQAGGSLRLSCAASGSIFNVYAMGWYRQAPGKERELVAAITGSGGRTYYADSVKGRFTISRDNAKNTVYLQMNSLKPEDTAVYYCAATTRPGYRYEGDYWGQGTQVTVSS | low polyreactivity |
| QVQLVDSGGGLVQAGGSLRLSCAASGSIFPGNPMGWYRQAPGKERELVAVIDFSGASTYYADSVKGRFTISRDNAKNTVYFQMNSLKPEDTADYWGQCTQVTVSS | low polyreactivity |
| QVQLVDSGGGLVQAGGSLRLSCAASGSIFSKYAMGGYRQAPGKERELVAAISGSGVSTYYADSVKGRFTISRDNAKNTVFLQMNSLKTEDTAVYYCNARGSFHQPRYGYWGQGTQVTVSS | high polyreactivity |
| QVQLVDSGGGLVQAGGSLRLSCAASGSIFSVYSMGGNRQATGKERELVASISRTGTTNYADSVKGSFTISRDNAKNTVYLQMNSLKPEDTAVFYCATDFTDWDVFLIKEFGYDYWGQGTQVTVSS | low polyreactivity |
| QVQLVDSGGGLVQAGGSLRLSCAASGSIFVGNAMGWYRQAPGKERELVAAITSSGGRTYYADSVKGRFTISRDNAKYTVYLQMNSLKAEDTSVYYCNTSRTRRFSLWDYDYWGQGTQVSVSS | high polyreactivity |
| QVQLVDSGGGLVQAGGSLRLSCAASGSIFVKYAMGCYRQAPGKERELVAAISGSGGSTYYADSVKGRFTISRDNAKNTVSLQMNSLKPEDTAVYYCAADDYFYSGRYGFEFWGQGTQVTVSS | low polyreactivity |
| QVQLVDSGGGLVQAGGSLRLSCAASGSIFYWYAMGWYRQAPGKERELVAAISWSGGSTFYADSVKGRFTISRDNAKNTVYLQMNSLKPEDTAVYYCAAETPYDYDYWGQGTQVTVSS | high polyreactivity |
| QVQLVDSGGGLVQAGGSLRLSCAASGSIFYYNAMGWYRPAPGKERELVAAITSSGGSTYYADSVKGRFTISRDNAKNTVYLQMNSLKPEDTAVYYCYAGATALRYRPYSSAYDYWGQGTQVTVSS | low polyreactivity |
| QVQLVDSGGGLVQAGGSLRLSCAASGSILVYYAMGWYRQAPGKERELVAAISSGGSTNYADSVKGRFTISRDNANNTVYLKINSLKPEDTAVYYCAKPDRTGWLEGDYWGQGTQVSVSS | low polyreactivity |
| QVQLVDSGGGLVQAGGSLRLSCAASGSNFDDYAMGWYRQAPGKERELVAAISSSGTSTYYADSVKGRFTISRDNAKNTVYLQMNSLKPEDTAVYYCAAKKKYHYVASYKRFEYWGQGTQVTVSS | low polyreactivity |
| QVQLVDSGGGLVQAGGSLRLSCAASGSNFGTYAMGWYRQAPGKERELVAAITTNGVSTYYADSVKGRFTISRDNAKNTVYLQMNSLKPEDTAVYYCAAPIQAWVRHLADIRYDYWGQGTQVTVSS | low polyreactivity |
